The text below walks through data of patent US20030027314.

Series [1] in a line: thermal melting curve, homodimer (FIG. 3).
Series [2] is described as follows: CD thermal melt, homodimer.
Series [3] is described as follows: CD thermal melt, homodimer, 150 mM KCl.
Series [4] is described as follows: thermal melting curve, homodimer (FIG. 3). This is another data set of the same source.
The nature of series [5]: thermal melting curve, homodimer (FIG. 4).
A short description of series [6]: thermal melting curve, homodimer (FIG. 4). The source holds these as a separate data set.
The nature of series [7]: CD thermal melt, homodimer, low salt (50 mM KCl).

B1: 4heptadCREB (CREB with 4 heptad repeats appended at the amino terminus) (protein)
chain: ASMTGGQQMGRDPDLEQRAEELARENEELEKEAEELEQENAELENRVAVLENQNKTLIEELKALKDLYCHKSD
As to B1, the Tm (commonly the temperature at the midpoint of the melting transition) in series [1] was “(4heptadCREB homodimerization) is 22 °C”.

B2: GBF-C/EBP chimeric protein (GBF basic region on the C/EBP leucine zipper) (protein)
chain: PVKDERELKRQKRKQSNRESARRSRLRNEAECEQTQQKVLELTSDNDRLRKRVEQLSRELDTLRGIFRQLPESSLVKAMGNCA
Regarding B2, the “difference of homodimer Tm from C/EBP” value in series [2] was “as homodimers showed a Tm within 1 °C of C/EBP”. Further, the midpoint of thermal melting (Tm) in series [3] was determined as 50.2 °C.

B3: 1heptad-F (protein)
chain: ASMTGGQQMGRDPGGGLEQENAELEQEVLELESRNDRLRKEVEQLERELDTLRGIFRQLPESSLVKAMGNCA
For B3, in series [3], the Tm is 29 °C.

B4: VBP-C/EBP chimeric protein (VBP basic region on the C/EBP leucine zipper) (protein)
chain: ASMTGGQQMGRDPLEEKVFVPDEQKDEKYWTRRKKNNVAAKRSRDARRLKENQTQQKVLELTSDNDRLRKRVEQLSRELDTLRGIFRQLPESSLVKAMGNCA
Regarding B4, in series [2], the “difference of homodimer Tm from C/EBP” value was “as homodimers showed a Tm within 1 °C of C/EBP”. Further, the Tm in series [3] was found to be 50 °C.

B5: 2heptad-F (protein)
chain: ASMTGGQQMGRDPGGGLEKEAEELEQENAELEQEVLELESRNDRLRKEVEQLERELDTLRGIFRQLPESSLVKAMGNCA
For B5, the Tm in series [3] worked out at 24.8 °C.

B6: CREB (unmodified) (protein, from a related filing)
chain: MASSPALPTQPAEEAARKREVRLMKNREAARECRRKKKEYVKCLENRVAVLENQNKTLIEELKALKDLYCHKSD
Turning to B6, in series [4], the Tm result is “the melting temperature of unmodified CREB homodimerization is 47 °C”.

B7: 4heptad-F (protein)
chain: ASMTGGQQMGRDPGGGLEQRAEELARENEELEKEAEELEQENAELEQEVLELESRNDRLRKEVEQLERELDTLRGIFRQLPESSLVKAMGNCA
Regarding B7, the Tm in series [3] turned out to be 15.2 °C.

B8: 4heptad-Fos (c-Fos with the basic region replaced by four acidic heptad repeats) (protein)
chain: MASMTGGQQMGRDPDLEQRAEELARENEELEKEAEELEQENAELEAETDQLEDEKSALQTEIANLLKEKEKLEFILAAHRPACKIP
As to B8, the Tm result in series [5] is “homodimerization of acidically modified c-Fos ... had a melting temperature of 25 °C”.

B9: c-Jun (unmodified) (protein, from a related filing)
chain: PLSPIDMESQERIKAERKRMRNRIAASKCRKRKLERIARLEEKVKTLKAQNSELASTANMLREQVAQLKQKVMNHVNSGCQLMLTQQLQTF
With B9, the Tm result in series [6] was “homodimerization of unmodified c-Jun had a melting temperature of 29.4 °C”.

B10: 3heptad-F (protein)
chain: ASMTGGQQMGRDPGGGLARENEELEKEAEELEQENAELEQEVLELESRNDRLRKEVEQLERELDTLRGIFRQLPESSLVKAMGNCA
B10: the Tm in series [3] was found to be 28.3 °C.

B11: 0heptad-F (F zipper with the basic region deleted) (protein)
chain: ASMTGGQQMGRDPGGGTQQEVLELESRNDRLRKEVEQLERELDTLRGIFRQLPESSLVKAMGNCA
With B11, in series [3], the Tm was found to be 30 °C.

B12: C/EBP bZIP domain (chimeric GCN4-C/EBP protein) (protein)
chain: SEYQPSLFALNPMGFSPLDGSKSTNENVSASTSTAKPMVGQLIFDKFIKTEEDPGKAKKSVDKNSNEYRVRRERNNIAVRKSRDKAKQRNVETQQKVLELTSDNDRLRKRVEQLSRELDTLRGIFRQLPESSLVKAMGNCA
On to B12, for which the “fall of Tm in 50 mM KCl against 150 mM KCl” value in series [2] is “less stable by 4 °C in 50 mM KCl compared with 150 mM KCl”. The Tm in series [3] stood at 49.5 °C; in series [7] it was 45.8 °C.
